Here are results for seven molecules from publication PMC11594918, “Kinetic Features of Degradation of R-Loops by RNase H1 from Escherichia coli”.

The target of one data set is RNA polymerase (RNAP) (Escherichia coli, UniProt P0A7Z4;P0A8V2;P0A8T7;P0A800 1-329;1-1342;1-1407;2-91). Put plainly: MST; MST: 40 mM Tris-HCl pH 7.9, 40 mM KCl, 10 mM MgCl2, 25 C; R-loop 0.5 uM, RH1 D10N 0.05-30 uM (RNAP MST conditions not stated separately). Conditions: protein: recombinant; tags: N-terminal His (pVS10 plasmid); chain copies: 2;1;1;1; label: 5'-FAM on RNA; three strands 1:1:1 (nontemplate DNA, template DNA, RNA); bubble; 11 bp hybrid.
Sequence of RNA polymerase (RNAP) (P0A7Z4 whole entry, chain 1 of 4): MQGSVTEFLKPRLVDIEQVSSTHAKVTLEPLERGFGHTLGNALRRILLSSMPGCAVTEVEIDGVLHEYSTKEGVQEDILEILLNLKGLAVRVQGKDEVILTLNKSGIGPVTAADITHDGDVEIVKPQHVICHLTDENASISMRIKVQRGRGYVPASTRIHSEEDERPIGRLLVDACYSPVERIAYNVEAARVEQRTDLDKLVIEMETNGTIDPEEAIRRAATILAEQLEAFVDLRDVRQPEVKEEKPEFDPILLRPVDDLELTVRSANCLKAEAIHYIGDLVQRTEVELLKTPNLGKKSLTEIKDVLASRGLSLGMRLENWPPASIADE
Sequence of RNA polymerase (RNAP) (P0A8V2 whole entry, chain 2 of 4): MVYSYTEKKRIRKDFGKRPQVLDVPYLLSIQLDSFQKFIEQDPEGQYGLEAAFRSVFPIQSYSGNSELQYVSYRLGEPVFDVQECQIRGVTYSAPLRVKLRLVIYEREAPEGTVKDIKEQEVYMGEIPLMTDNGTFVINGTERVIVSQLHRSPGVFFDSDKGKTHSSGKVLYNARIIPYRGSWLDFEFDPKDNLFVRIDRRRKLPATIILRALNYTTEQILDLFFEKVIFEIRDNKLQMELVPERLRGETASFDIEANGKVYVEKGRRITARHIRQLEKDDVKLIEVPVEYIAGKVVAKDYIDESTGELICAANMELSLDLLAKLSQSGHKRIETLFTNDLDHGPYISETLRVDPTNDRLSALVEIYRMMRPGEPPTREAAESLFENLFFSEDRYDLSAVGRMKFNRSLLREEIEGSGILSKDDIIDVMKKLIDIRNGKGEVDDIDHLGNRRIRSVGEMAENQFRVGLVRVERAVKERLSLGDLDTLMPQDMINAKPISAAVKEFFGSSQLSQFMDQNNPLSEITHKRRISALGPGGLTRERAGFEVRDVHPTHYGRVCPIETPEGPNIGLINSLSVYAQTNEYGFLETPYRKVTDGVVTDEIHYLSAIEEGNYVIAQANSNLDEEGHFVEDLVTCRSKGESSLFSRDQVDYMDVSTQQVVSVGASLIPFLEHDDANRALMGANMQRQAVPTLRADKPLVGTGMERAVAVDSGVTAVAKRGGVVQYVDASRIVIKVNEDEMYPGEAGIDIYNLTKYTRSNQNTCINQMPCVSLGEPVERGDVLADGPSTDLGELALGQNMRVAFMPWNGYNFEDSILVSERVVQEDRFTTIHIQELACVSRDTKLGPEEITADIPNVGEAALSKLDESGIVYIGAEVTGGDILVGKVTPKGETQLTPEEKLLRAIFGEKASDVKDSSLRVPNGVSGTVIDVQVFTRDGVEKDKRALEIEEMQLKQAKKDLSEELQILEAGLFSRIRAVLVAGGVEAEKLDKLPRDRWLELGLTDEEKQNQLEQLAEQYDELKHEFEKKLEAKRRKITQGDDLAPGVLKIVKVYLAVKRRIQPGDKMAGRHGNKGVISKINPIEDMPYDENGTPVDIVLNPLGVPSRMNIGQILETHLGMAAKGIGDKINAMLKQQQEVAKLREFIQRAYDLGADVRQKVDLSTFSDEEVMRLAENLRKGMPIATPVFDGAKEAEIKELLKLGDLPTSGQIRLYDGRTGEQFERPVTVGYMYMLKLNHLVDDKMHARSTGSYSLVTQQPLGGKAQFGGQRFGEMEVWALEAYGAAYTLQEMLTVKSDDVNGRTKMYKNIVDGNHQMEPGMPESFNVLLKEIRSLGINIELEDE
Sequence of RNA polymerase (RNAP) (P0A8T7 whole entry, chain 3 of 4): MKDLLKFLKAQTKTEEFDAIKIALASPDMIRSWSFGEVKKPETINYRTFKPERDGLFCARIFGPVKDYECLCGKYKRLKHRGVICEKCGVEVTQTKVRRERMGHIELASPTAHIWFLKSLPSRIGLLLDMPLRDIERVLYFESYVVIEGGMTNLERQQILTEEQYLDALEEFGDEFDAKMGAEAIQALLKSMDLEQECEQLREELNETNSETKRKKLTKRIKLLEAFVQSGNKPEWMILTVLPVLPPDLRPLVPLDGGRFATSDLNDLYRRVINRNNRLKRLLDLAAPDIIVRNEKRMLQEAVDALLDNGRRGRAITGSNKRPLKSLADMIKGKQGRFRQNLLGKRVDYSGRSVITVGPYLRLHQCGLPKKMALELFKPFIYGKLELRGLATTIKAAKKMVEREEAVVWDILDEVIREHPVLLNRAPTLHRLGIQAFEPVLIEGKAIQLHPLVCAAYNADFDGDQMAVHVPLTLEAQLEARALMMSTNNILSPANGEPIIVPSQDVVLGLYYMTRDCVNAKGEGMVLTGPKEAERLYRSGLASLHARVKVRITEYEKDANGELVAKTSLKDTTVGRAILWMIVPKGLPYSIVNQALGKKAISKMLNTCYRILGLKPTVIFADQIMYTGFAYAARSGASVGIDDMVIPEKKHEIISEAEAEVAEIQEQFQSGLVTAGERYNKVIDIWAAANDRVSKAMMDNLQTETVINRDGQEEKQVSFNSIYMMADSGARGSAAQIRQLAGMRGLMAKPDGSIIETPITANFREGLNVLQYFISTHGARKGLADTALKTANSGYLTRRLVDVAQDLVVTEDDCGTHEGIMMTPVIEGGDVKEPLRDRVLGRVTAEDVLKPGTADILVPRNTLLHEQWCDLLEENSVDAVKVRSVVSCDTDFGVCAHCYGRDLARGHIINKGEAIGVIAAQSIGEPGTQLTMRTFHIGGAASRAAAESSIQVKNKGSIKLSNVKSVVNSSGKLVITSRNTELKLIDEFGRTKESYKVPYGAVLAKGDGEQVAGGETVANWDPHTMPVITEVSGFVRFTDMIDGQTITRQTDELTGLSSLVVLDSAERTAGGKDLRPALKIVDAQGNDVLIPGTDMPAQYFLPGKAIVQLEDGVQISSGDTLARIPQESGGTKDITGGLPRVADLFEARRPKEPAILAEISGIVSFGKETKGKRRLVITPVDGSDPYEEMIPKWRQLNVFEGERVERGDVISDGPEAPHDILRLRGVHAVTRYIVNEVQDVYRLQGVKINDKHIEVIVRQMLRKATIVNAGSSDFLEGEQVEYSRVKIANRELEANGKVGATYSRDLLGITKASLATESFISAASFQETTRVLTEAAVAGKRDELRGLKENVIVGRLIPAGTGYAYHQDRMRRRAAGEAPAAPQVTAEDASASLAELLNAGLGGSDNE
Sequence of RNA polymerase (RNAP) (P0A800 2-91, chain 4 of 4): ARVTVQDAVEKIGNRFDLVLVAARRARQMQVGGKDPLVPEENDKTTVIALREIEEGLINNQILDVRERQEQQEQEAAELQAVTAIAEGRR

Data set [1] addresses T1, RNase H1 D10N (RH1 D10N) (Escherichia coli, UniProt P0A7Y4 1-155, D10N).
T1 sequence: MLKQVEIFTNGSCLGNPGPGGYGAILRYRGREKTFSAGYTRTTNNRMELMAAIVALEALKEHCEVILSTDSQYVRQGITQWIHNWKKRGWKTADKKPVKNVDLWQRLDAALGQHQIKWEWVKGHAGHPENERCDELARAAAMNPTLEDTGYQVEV
Put plainly: MST; 10 mM Mg2+; MST: 40 mM Tris-HCl pH 7.9, 40 mM KCl, 10 mM MgCl2, 25 C; R-loop 0.5 uM, RH1 D10N 0.05-30 uM (RNAP MST conditions not stated separately). Conditions: protein: recombinant, tags: N-terminal 6xHis, label: 5'-FAM on RNA, bubble.

Data set [2] has as its target T1, RNase H1 D10N (RH1 D10N). Put plainly: MST; 10 mM Mg2+; saturation not reached, low limit estimate; MST: 40 mM Tris-HCl pH 7.9, 40 mM KCl, 10 mM MgCl2, 25 C; R-loop 0.5 uM, RH1 D10N 0.05-30 uM (RNAP MST conditions not stated separately). The following applies: protein: recombinant, tags: N-terminal 6xHis, label: 5'-FAM on RNA, three strands 1:1:1, bubble.
[3] abbreviates: three strands 1:1:1, 10-11 nt hybrid.

Positions count from the first letter of the chain named.

B1: R-loop 1 (mixed)
DNA 1: ACTTGTAGCGATCTAAGGTCTTTTTTTTTGGCTCATTGCAGTAGAGTAGC
DNA 2: GCTACTCTACTGCAATGAGCTGCTCTCTGGAACCTTAGATCGCTACAAGT
RNA: CUCACAUCCAGAGAGCA
Consider B1, for which the dissociation constant Kd with RNA polymerase (RNAP) was 0.3 ± 0.1 µM; with RNase H1 D10N (RH1 D10N) [1] (three strands 1:1:1 (nontemplate DNA, template DNA, RNA), 11 bp hybrid), 1.2 ± 0.4 µM.

B2: R-loop 3 (mixed)
DNA 1: B1 DNA 1 with G31C
DNA 2: B1 DNA 2
RNA: CUCACAUCCAGAGAGCA
In the case of B2, in the data set with RNase H1 D10N (RH1 D10N) [1] (setting [3]), the dissociation constant Kd came out at 1.5 ± 0.4 µM.

B3: R-loop 2 (mixed)
DNA 1: B1 DNA 1 with G30A
DNA 2: B1 DNA 2
RNA: CUCACAUCCAGAGAGCA
Consider B3, for which the Kd in the data set with RNase H1 D10N (RH1 D10N) [1] (setting [3]) was determined as 1.1 ± 0.4 µM.

B4: R-loop 6 (mixed)
DNA 1: ACTTGTAGCGATCTAAGGTCTTTTTTTTTTTTTTGGCTCATTGCAGTAGAGTAGC
DNA 2: GCTACTCTACTGCAATGAGCTGCTCTCTGGACTCGAACCTTAGATCGCTACAAGT
RNA: CUCACAUCGAGUCCAGAGAGCA
On to B4, for which the Kd in the data set with RNase H1 D10N (RH1 D10N) [2] (16 nt hybrid) was approximately 9.7 µM.

B5: R-loop 7 (mixed)
DNA 1: ACTTGTAGCGATCTAAGGTCTTTTTTTTTTTTTTTTTTTGGCTCATTGCAGTAGAGTAGC
DNA 2: GCTACTCTACTGCAATGAGCTGGGATGTGTAGTGGAATAGAACCTTAGATCGCTACAAGT
RNA: CUCACAUCUAUUCCACUACACAUCCCA
As to B5, in the data set with RNase H1 D10N (RH1 D10N) [2] (extended hybrid), the Kd is approximately 6.7 µM.

B6: R-loop 8 (mixed)
DNA 1: ACTTGTAGCGATCTAAGGTCTTTTTTTTTTTTTTTTTTTTTTTTTTTTTGGCTCATTGCAGTAGAGTAGC
DNA 2: GCTACTCTACTGCAATGAGTGCTTGATGGAGGGATGTGTAGTGGAATAGATACCTTAGATCGCTACAAGT
RNA: CUCACAUCUAUUCCACUACACAUCCCUCCAUCAAGCA
As for B6, in the data set with RNase H1 D10N (RH1 D10N) [2] (extended hybrid), the Kd is approximately 9.3 µM.

B7: R-loop 9 (mixed)
DNA 1: ACTTGTAGCGATCTAAGGTCTTTTGGGTGGGTGGGTGGGTTTTTTTTTTGGCTCATTGCAGTAGAGTAGC
DNA 2: B6 DNA 2
RNA: B6 RNA
As for B7, the Kd with RNase H1 D10N (RH1 D10N) [2] (extended hybrid, G4 in nontemplate DNA (annealed in 140 mM KCl)) was approximately 5.1 µM.
